The target in the assay is heparan sulfate proteoglycans. Nature of the assay: SPR competition (HSPG with LF or LF mutant flowed over PEDV S protein immobilised on a CM5 chip). The note with it: parent: est. 5.0; read off a plot.
Turning to “Lactoferrin (from UniProt P14632) P1641L”, the response amounted to 69 RU.

In the case of “Lactoferrin (from UniProt P14632) G1607L”, the response came to 3.5 RU.

In the case of “Lactoferrin (from UniProt P14632) P1963L”, the response is 69 RU.

These data come from PMC11786531.
